Target: T1, TLR4 (Mus musculus, UniProt Q9QUK6)
T1 sequence (Q9QUK6 26-835): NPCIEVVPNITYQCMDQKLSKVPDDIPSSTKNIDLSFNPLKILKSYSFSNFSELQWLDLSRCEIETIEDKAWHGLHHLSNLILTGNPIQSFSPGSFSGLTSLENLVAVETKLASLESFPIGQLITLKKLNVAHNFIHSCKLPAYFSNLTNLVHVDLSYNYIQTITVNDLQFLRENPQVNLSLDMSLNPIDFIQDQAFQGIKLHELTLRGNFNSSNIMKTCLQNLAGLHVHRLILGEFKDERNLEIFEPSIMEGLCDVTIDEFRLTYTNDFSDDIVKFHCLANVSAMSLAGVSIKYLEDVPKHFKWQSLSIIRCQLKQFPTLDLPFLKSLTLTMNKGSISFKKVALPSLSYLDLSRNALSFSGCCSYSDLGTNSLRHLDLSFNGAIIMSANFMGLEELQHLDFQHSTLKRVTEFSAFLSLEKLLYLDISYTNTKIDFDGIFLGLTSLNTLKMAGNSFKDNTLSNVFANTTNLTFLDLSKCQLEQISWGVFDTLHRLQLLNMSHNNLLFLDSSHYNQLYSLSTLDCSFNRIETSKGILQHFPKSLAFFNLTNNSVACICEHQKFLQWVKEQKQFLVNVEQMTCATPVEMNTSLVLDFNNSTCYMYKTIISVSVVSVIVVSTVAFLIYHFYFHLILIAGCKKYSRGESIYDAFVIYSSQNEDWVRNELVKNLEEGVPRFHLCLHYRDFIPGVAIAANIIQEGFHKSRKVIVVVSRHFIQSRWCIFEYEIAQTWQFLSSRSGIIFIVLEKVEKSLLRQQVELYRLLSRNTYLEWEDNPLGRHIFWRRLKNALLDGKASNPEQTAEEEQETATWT
T1 sequence (Q9JHF9 19-160 partner): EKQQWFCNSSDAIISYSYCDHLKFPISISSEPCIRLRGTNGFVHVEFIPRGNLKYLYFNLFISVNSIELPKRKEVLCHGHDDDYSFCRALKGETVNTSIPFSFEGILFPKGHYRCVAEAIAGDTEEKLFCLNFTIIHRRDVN
Test: LPS-induced TNFα in RAW264.7 cells, ELISA
Assay type: cell-based, murine
Parameters: endogenous in cells; host or cells: RAW264.7; immortalised murine bone-marrow-derived macrophages
Description: FIGS. 5A and B are bar charts showing the dose-dependent inhibitory effect of A464R on LPS-induced TNFα in murine RAW264.7 cells. A464 (SEQ ID NO. 20) was added to the cells at a concentration of 5, 20 or 50 μM 1 hour before stimulating with 100 ng/ml LPS. Supernatant was collected 24 hours after stimulation and assayed for TNFα by ELISA (A) and cells were assayed for viability by the MTT assay (B.). No peptides were added to the control wells (black bars). Data is representative of at least three experiments each performed in triplicate and is expressed as mean±s.d;
FIGS. 6A and B are bar charts showing the effect of peptides derived from A46 on LPS-induced TNFα in murine RAW264.7 cells. A46 peptides were added to the cells at a concentration of 1 or 5 μM 1 hour before stimulating with 10 ng/ml LPS. Supernatants were collected 6 hours after stimulation and assayed for TNFα by ELISA. No peptides were added into the control wells (black bars). (A) peptides A461-A467 (SEQ ID NO. 17 to 23). (B) peptides A468-A4614 (SEQ ID NO. 24 to 30) (excluding A4610 SEQ ID NO. 26 and A4612 SEQ ID NO. 28). Data is representative of at least two experiments each performed in triplicate and is expressed as mean±s.d;
FIGS. 22 A and B are bar charts showing the effect of short A467 and A464 peptides, with 9R on either N- or C-terminus, on LPS- induced TNFα production in murine RAW264.7 cells. Cells were seeded in 96 well plates (1.5×10^5 cells/ml) 24 hours before treatment. Short A467 and short A464 peptides with the 9R delivery sequence on either the C-terminus (sA464C9R) (SEQ ID NO. 56) (A) or the N-terminus (sA464N9R) (SEQ ID NO. 57) (B) were added to the cells at a concentration of 5 or 25 μM 1 hour before stimulating with 10 ng/ml LPS. Normal full length A467 (SEQ ID NO. 23) and A464 (SEQ ID NO. 20) peptides were added at a concentration of 5 μM as positive controls. Supernatants were collected 6 hours after stimulation with the agonist and assayed for TNFα, by ELISA. No peptides were added to the control wells (black bars). Data is representative of at least three experiments each performed in triplicate and is expressed as mean±s.d;
Cytokine and chemokine production from cells or mouse serum was measured by ELISA using Duoset kits from R&D systems, according to the manufacturer's instructions.

## KYSFKLILAEYRRRRRRRRR [Peptide A464]
Peptide 1 or 5 μM 1 h before 10 ng/ml LPS, 6 h
  inhibition of LPS-induced mTNFα: inhibited LPS-induced mTNFα at 1 and 5 μM
Peptide 5, 20 or 50 μM 1 h before 100 ng/ml LPS, 24 h
  inhibition of LPS-induced murine TNFα production: potently inhibited LPS-induced murine TNFα production in RAW264.7 cells at just 5 μM

— patent US8722052B2, “Vaccinia virus protein A46 peptide and use thereof” (priority 2008, dated 2014)
